Assay results from paper PMC3350560.

B1: probe A (oligo A) (dsDNA)
DNA 1: GATTTGCGTTTTAGAGGCTATAGGCTCTTGAAACTCTCCA
DNA 2: TGGAGAGTTTCAAGAGCCTATAGCCTCTAAAACGCAAATC
B2: probe D (oligo D) (dsDNA)
DNA 1: CAATGATTTGCGTTTTAG
DNA 2: CTAAAACGCAAATCATTG
B3: probe C (oligo C) (dsDNA)
DNA 1: GGCAAACAGCAGGAATTCCTAAAAAATTCGAAAAGGTTTCT
DNA 2: AGAAACCTTTTCGAATTTTTTAGGAATTCCTGCTGTTTGCC

target: rCKAP4 (recombinant CKAP4 extracellular domain) (UniProt Q07065 126-501); assay: EMSA
Sequence (Q07065 126-501): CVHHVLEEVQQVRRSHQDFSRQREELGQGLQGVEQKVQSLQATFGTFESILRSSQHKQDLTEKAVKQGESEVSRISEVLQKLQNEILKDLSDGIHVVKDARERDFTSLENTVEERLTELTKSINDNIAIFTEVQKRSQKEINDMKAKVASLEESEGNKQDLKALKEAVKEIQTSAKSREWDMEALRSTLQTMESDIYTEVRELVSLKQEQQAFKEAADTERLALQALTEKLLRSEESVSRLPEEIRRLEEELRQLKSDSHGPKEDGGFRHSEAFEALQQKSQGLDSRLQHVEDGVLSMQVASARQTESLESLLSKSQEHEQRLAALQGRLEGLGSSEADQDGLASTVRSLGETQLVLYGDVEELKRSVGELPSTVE

Row | Binder | binding result
1 | B1 | binds
2 | B2 | no binding
3 | B3 | no binding
